From paper PMC2955897 (Journal of immunology (Baltimore, Md. : 1950), 2009)
Read-outs that look alike come from different tables or passages of the source.

T1: Toll-like receptor 4 (mouse (endogenous in TG-elicited …, UniProt Q9QUK6 26-835))
T1 sequence (looked up): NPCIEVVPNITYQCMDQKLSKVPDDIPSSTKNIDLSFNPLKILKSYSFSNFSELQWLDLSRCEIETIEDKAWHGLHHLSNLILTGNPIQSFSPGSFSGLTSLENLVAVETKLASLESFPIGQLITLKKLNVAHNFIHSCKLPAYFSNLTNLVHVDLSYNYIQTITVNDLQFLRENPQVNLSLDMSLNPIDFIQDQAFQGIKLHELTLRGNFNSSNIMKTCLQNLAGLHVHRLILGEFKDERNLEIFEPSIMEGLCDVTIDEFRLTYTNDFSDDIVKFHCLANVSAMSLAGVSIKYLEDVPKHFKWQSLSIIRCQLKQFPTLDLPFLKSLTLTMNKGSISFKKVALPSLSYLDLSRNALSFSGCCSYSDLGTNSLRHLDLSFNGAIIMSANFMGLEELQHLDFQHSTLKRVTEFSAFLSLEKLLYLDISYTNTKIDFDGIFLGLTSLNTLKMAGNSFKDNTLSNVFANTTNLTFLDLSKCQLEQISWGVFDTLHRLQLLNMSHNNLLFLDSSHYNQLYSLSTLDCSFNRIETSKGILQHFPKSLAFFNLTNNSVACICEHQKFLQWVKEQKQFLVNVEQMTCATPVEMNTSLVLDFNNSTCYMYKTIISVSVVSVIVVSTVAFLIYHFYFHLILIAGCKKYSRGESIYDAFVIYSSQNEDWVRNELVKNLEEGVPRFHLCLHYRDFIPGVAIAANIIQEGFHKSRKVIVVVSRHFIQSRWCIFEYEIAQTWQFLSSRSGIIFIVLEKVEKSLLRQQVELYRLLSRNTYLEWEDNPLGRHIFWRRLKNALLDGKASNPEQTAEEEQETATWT


Columns and labels:
Test in all cases: flow cytometry on cells
[1] = molecular target: T1, Toll-like receptor 4
[2] = molecular target: T1, Toll-like receptor 4; remark: listed apart in the source
[3] = molecular target: T1, Toll-like receptor 4; remark: listed apart in the source

| Binder | Ki [1] [µM] | Kd [2] [µM] | Kd [3] [µM] |
| --- | --- | --- | --- |
| FITC-conjugated Prx1 (recombinant human) (natural protein, UniProt Q06830 1-199, looked up, FITC conjugated (FITC conjugation kit, Sigma; residues not stated)) MSSGNAKIGHPAPNFKATAVMPDGQFKDISLSDYKGKYVVFFFYPLDFTFVCPTEIIAFSDRAEEFKKLNCQVIGASVDSHFCHLAWVNTPKKQGGLGPMNIPLVSDPKRTIAQDYGVLKADEGISFRGLFIIDDKGILRQITVNDLPVGRSVDETLRLVQAFQFTDKHGEVCPAGWKPGSDTIKPDVQKSKEYFSKQK | – | ~1300 | 1600 |
| FITC-conjugated Prx1C52S (recombinant human) (natural protein, UniProt Q06830 1-199, looked up, FITC conjugated (FITC conjugation kit, Sigma; residues not stated)) MSSGNAKIGHPAPNFKATAVMPDGQFKDISLSDYKGKYVVFFFYPLDFTFVSPTEIIAFSDRAEEFKKLNCQVIGASVDSHFCHLAWVNTPKKQGGLGPMNIPLVSDPKRTIAQDYGVLKADEGISFRGLFIIDDKGILRQITVNDLPVGRSVDETLRLVQAFQFTDKHGEVCPAGWKPGSDTIKPDVQKSKEYFSKQK | – | – | 2500 |

Further lines, results first:

| Ki [1] [µM] | Kd [2] [µM] | Kd [3] [µM] | Binder |
| --- | --- | --- | --- |
| 4100 | – | – | Peroxiredoxin 1 (recombinant human Prx1, unlabeled) (natural protein, UniProt Q06830 1-199, looked up) MSSGNAKIGHPAPNFKATAVMPDGQFKDISLSDYKGKYVVFFFYPLDFTFVCPTEIIAFSDRAEEFKKLNCQVIGASVDSHFCHLAWVNTPKKQGGLGPMNIPLVSDPKRTIAQDYGVLKADEGISFRGLFIIDDKGILRQITVNDLPVGRSVDETLRLVQAFQFTDKHGEVCPAGWKPGSDTIKPDVQKSKEYFSKQK |
| 5200 | – | – | Prx1C52S (recombinant human, unlabeled) (natural protein, UniProt Q06830 1-199, looked up) MSSGNAKIGHPAPNFKATAVMPDGQFKDISLSDYKGKYVVFFFYPLDFTFVSPTEIIAFSDRAEEFKKLNCQVIGASVDSHFCHLAWVNTPKKQGGLGPMNIPLVSDPKRTIAQDYGVLKADEGISFRGLFIIDDKGILRQITVNDLPVGRSVDETLRLVQAFQFTDKHGEVCPAGWKPGSDTIKPDVQKSKEYFSKQK |
